The results in this text go back to publication doi:10.1101/2021.03.01.433494 (bioRxiv, 2021).

In assay [1] the target is T1, M1 protein on the surface of Streptococcus pyogenes strain SF370 (Streptococcus pyogenes SF370 (emm1), UniProt Q99XV0, strain). In words: far-Western, overlay or dot blot.
For assay [2], the target named is T1, M1 protein on the surface of …. Put plainly: flow cytometry on cells. In general terms: A flow cytometer gives signals particle by particle.

B1: Ab32 (human monoclonal anti-M protein IgG) (antibody, V domains shown)
VH: EVQLVESGGGLVRPGGSLRLSCVASGFMFNEYYMSWIRQAPGKGLEWISFISNAGTYTNYAESVKGRFTISRDNAKDSLYLEMNSLRGEDTAVYYCARQGFDTRGEDAFEIWGQGTMVTVSS
VL: EIVLTQSPATLSLSPGERATLSCRASQPLSGYLAWYQQKPGQAPRLLIYNASKRATGIPARFTGSGSGTDFTLTISSLESEDFAVYYCQQRSGWPSIFTFGPGTKVDIK
On to B1, for which the binding result in assay [1] is on record as “binds”.

B2: Ab49 (human monoclonal anti-M protein IgG) (antibody, V domains shown)
VH: EVQLVESGGGLVQPGGSLRLSCAASGFTVSINYMSWVRQAPGKGLQWVSVIYSGGSTYYADSVKGRFTISRDNSKNTLYLQMNSLRAEDTAMYYCVRDSRFWGIFDYWGQGTLVTVSS
VL: EIVLTQSPATLSLSPGERATLSCRASQSVSSYLAWYQRKPGQAPRLLIYDASNRATGIPARFSGSGSGTDFTLTISSLEPEDFAVYYCQQRSNWPPTFGQGTKVEIK
B2: the binding result in assay [2] is on record as “binds”.

B3: Ab49 single Fab (IgdE-cleaved Ab49) (Fab, V domains shown)
VH: EVQLVESGGGLVQPGGSLRLSCAASGFTVSINYMSWVRQAPGKGLQWVSVIYSGGSTYYADSVKGRFTISRDNSKNTLYLQMNSLRAEDTAMYYCVRDSRFWGIFDYWGQGTLVTVSS
VL: EIVLTQSPATLSLSPGERATLSCRASQSVSSYLAWYQRKPGQAPRLLIYDASNRATGIPARFSGSGSGTDFTLTISSLEPEDFAVYYCQQRSNWPPTFGQGTKVEIK
Regarding B3, in assay [2], the binding result is reported as “binds”.
